Consider seven molecules from patent publication US20200040103A1 (Genentech, published 2020).

In test [1] the target is T1, Recombinant human KLK5 residues I67-S293 (SEQ ID NO:328) (human, UniProt Q9Y337 67-293, lysine residues methylated in the 10C5 and 9H5 complexes that gave crystals).
T1 construct: Expressed in Sf9 cells as ubiquitin fusion; ubiquitin removed with Enterokinase; also called Human KLK5 Crystal Structure Experiments
T1 sequence: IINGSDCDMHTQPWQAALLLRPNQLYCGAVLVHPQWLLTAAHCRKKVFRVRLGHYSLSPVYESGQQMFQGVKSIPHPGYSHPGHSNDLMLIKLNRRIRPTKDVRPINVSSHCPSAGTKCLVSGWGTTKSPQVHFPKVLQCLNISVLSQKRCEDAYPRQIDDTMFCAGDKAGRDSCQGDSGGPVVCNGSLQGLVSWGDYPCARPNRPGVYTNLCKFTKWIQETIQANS
The experiment in a line: crystal structure of the Fab/KLK5 complex. As for the experimental part: Recombinant human KLK5 residues I67-S293 (SEQ ID NO:328) was expressed in a Baculovirus expression system as a C-terminal fusion of ubiquitin with an Enterokinase cleavage site engineered between ubiquitin and KLK5. Sf9 cells were coexpressed with EndoH with 1 mg/mL of Kifunensine. Protein was purified on a HiTrap™ Heparin column. The column was washed with 25 mM TRIS pH 7.5 for 5 CV (column volumes), and then eluted with 0-750 mM NaCl over a gradient of 20 CV. Resultant protein pool was then further purified over 5200 by SEC in 25 mM Tris pH 7.5, 300 mM NaCl. The Ubiquitin was then cleaved using Enterokinase, and sample further purified by SEC again. […] Fab fragments including heavy and light chains were expressed and purified as described. See Carter et al., Biotechnology 10(2), 163-167 (1992). KLK5 was then mixed with each of the Fabs separately, 10C5, 9H5, and 3-3F5, and the complex was purified by SEC in 25 mM HEPES pH 7.2, 100 mM NaCl. […] Crystal for the 10C5 and 9H5 complexes were only obtained when the lysine residues in the protein complexes were methylated. See Walter et al., Structure, 14(11), 1617-1622 (2006).

The target in test [2] is T2, human KLK7 (human, UniProt P49862 30-253, limits assumed). The experiment in a line: array SPR imaging, antibody immobilized. As for the experimental part:
(§1) An array-based SPR imaging system (Carterra™, USA) was used to epitope bin a panel of 288 monoclonal antibodies. Purified antibodies were diluted at 10 μg/ml in 10 mM sodium acetate buffer pH 4.5. Using amine coupling, antibodies were directly immobilized onto a SPR sensorprism CMD 200M chip (XanTec Bioanalytics GmbH, Germany) using a Continuous Flow Microspotter (Carterra™, USA) to create an array of 288 antibodies. For analysis, the IBIS MX96 SPRi (Carterra™, USA) was used to evaluate analytes binding to the immobilized ligands. For kinetic analyses, human, cyno and murine KLK5 were injected for 3 minutes from 0 to 300 nM at 3-fold dilution followed by a dissociation period of 10 minutes. Human KLK1, KLK4, and KLK7 were injected at a single concentration of 500 nM to ensure the specificities of the antibodies. For epitope binning against SPINK9-Fc-SRE, human KLK5 was first injected for 4 minute at 100 nM and was followed by a second 4 minute injection of SPINK9-Fc-SRE at 10 μg/ml. The surface was regenerated with 10 mM glycine pH1.5 between cycles. The experiment was performed at 25° C. in a running buffer of HBS-T buffer (0.01M HEPES pH 7.4, 0.15M NaCl, 0.05% surfactant P20). The kinetic data was processed using Scrubber 2.0 (BioLogic™ Software) and the epitope binning data was processed using Wasatch binning software tool (Carterra™, USA).

The target of test [3] is T3, human KLK1 (human, UniProt P06870 25-262, limits assumed). As to the kind of experiment: array SPR imaging, antibody immobilized. As for the experimental part: as §1
Test [4] concerns the target T4, human KLK4 (human, UniProt Q9Y5K2 31-254, limits assumed). The experiment in a line: array SPR imaging, antibody immobilized. As for the experimental part:
as §1

The target in test [5] is T5, trypsin isolated from bovine pancreas (bovine, UniProt P00760 24-246).
T5 construct: also called bovine trypsin
The experiment in a line: column 9: trypsin activity assay, 0.25 nM trypsin. The method, then:
0.25 nM trypsin isolated from bovine pancreas and 0.19-100 nM anti-KLK5 inhibitors were pre-incubated for 30 minutes prior to addition of 50 μM Boc-VPR-AMC. […] The results for the KLK5 inhibitors are depicted as follows: FIG. 9A: Spink9.SRE.Fc, FIG. 9B: mAb1108, FIG. 9C: 3-3F5, FIG. 9D: 10C8, FIG. 9E: 9B6, FIG. 9F: 9F2, FIG. 9G: 9H3, FIG. 9H: 9H5, FIG. 9I: 8B7, FIG. 9J: 2B11, FIG. 9K: 8F5, FIG. 9L: 10C5, FIG. 9M: 10H3 and FIG. 9N: 2-3F4.
(§2) Trypsin selectivity assay was performed at room temperature in a 384-well plate (black, low-volume round bottom, Corning #4514) with a final reaction volume of 15 μL. Inhibitor samples were diluted to 3× final concentration in assay buffer (75 mM Tris, pH 8.0, 150 mM NaCl, 0.01% TWEEN® 20). Reactions lacking inhibitor and reactions lacking enzyme were used as 100% and 0% activity controls, respectively. Inhibitor or control samples (5 μL) were added to the plate followed by 5 μL trypsin (Sigma Aldrich T8003, Lot SLBM2321V, 42.0 μM stock solution in 1 mM HCl) in assay buffer at a final concentration of 0.25 nM. After 30 minutes, 5 μL of Boc-Val-Pro-Arg-AMC (Bachem I-1120, 31.3 mM stock solution in water) in assay buffer was added at a final concentration of 50 μM. […] Reaction rates (expressed as RFU/s) were calculated by linear regression in the range 204-3570 seconds. Reaction rates were normalized to the values of the 0% and 100% activity controls and fit with a 4-parameter equation to calculate IC₅₀ values. In the case of bivalent inhibitors, the raw IC₅₀ value was multiplied by two.

In test [6] the target is T2, human KLK7. The experiment in a line: column 6: KLK7 activity assay, 5 nM KLK7. As for the experimental part:
KLK7 selectivity assay was performed at room temperature in a 384-well plate (black, low-volume round bottom, Corning #4514) with a final reaction volume of 15 μL. Inhibitor samples were diluted to 3× final concentration in assay buffer (75 mM Tris, pH 8.0, 150 mM NaCl, 0.01% TWEEN® 20). Reactions lacking inhibitor and reactions lacking enzyme were used as 100% and 0% activity controls, respectively. Inhibitor or control samples (5 μL) were added to the plate followed by 5 μL KLK7 (Genentech) in assay buffer at a final concentration of 5 nM. After 30 min, 5 μL of Suc-Leu-Leu-Val-Tyr-AMC (Bachem I-1395, 25 mM stock solution in water) in assay buffer was added at a final concentration of 100 μM. […] Reaction rates (expressed as RFU/s) were calculated by linear regression in the range 2040-4488 seconds. Reaction rates were normalized to the values of the 0% and 100% activity controls and fit with a 4-parameter equation to calculate IC₅₀ values. […]

Test [7] has as its target T3, human KLK1. The experiment in a line: column 7: KLK1 activity assay, 3 nM KLK1.
The target of test [8] is T4, human KLK4. The experiment in a line: column 8: KLK4 activity assay, 2 nM KLK4. The method, then: as §2, with “KLK4” for “Trypsin”, “KLK4 (R&D Systems, 1719-SE,” for “trypsin (Sigma Aldrich T8003,”, “MSY0116011, activated according to R&D systems protocol)” for “SLBM2321V, 42.0 μM stock solution in 1 mM HCl)”, “2” for “0.25”, “510-3570” for “204-3570”
In FIG. 8, the ability of Spink9.SRE.Fc, mAb1108 or 12 selected anti-KLK5 antibodies to inhibit the proteolysis of the substrate, Boc-VPR-AMC, by human KLK4 was assessed using an enzymatic assay. […] The results were expressed as a percentage of maximum KLK4 activity (% control).

The term IC50 denotes the concentration that gives 50% inhibition. Lower therefore signals greater potency.

T2 sequence (P49862 30-253 limits assumed): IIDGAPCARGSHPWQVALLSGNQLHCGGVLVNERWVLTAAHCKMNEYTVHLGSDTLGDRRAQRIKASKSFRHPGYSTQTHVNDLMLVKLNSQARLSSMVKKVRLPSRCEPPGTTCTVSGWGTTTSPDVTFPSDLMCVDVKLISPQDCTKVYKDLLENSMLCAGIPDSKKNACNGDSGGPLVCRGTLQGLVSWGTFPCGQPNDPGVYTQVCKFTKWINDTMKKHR
T3 sequence (P06870 25-262 limits assumed): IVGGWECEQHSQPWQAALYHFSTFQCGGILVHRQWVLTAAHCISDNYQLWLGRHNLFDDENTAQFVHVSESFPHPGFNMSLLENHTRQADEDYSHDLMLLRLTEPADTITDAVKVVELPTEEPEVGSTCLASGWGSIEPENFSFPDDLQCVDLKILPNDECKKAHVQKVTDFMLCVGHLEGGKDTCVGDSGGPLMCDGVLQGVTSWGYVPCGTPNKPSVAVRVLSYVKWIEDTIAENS
T4 sequence (Q9Y5K2 31-254 limits assumed): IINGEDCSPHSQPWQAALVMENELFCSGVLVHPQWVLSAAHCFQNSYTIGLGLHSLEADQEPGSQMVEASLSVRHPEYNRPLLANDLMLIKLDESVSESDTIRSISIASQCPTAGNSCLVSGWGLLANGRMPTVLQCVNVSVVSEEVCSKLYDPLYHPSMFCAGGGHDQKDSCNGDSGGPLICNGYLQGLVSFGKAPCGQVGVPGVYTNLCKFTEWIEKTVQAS
T5 sequence (P00760 24-246): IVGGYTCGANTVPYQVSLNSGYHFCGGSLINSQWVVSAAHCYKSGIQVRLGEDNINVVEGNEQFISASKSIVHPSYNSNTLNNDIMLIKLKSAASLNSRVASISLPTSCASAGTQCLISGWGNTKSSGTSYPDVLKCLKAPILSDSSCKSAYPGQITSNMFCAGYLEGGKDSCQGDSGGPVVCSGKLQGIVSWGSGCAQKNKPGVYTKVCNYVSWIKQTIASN

B1: 10C5 Fab (Fab, V domains shown)
VH: EVQLVESGGGLVQPGGSLRLSCAASGFSLSSYGVTWVRQAPGKGLEWIGYITSNYGVSYYASWAKSRSTISRDTSKNTVYLQMGSLRAEDMAVYYCARENPDYGYAYDAWGQGTTVTVSS
VL: AIRMTQSPSSFSASTGDRVTITCQASESISNELSWYQQKPGKAPKLLIYYASTLASGVPSRFSGSGSGTDFTLTISSLQPEDFATYYCAQGFGSSGVENVFGGGTKVEIKR
notes: Fab used for crystallization with human KLK5; lysines of the complex were methylated; also called Fab 10C5 Humanized
As to B1, the buried surface area in test [1] is approximately 860 Å^2.

B2: 14C8 (antibody, V domains shown)
VH: EVQLVESGGGLVQPGRSLKLSCTASGFTFSDYNMAWVRQAPKGGLEWVTTISYDAGRTYYRDSVKGRFTISRDNAKRTLSLQMDSLRSEDTATYYCATGIFNYGTDYFDYWGQGVMVTVSS
VL: DIQMTQSPASLSASLGETVTIQCRASEDIYSGLAWYQQKPGKSPQLLIYGATTLHDGVPSRFSGSGSGTQYSLKISSMHSEDEGIYFCHQGLSFPYTFGAGTKLELK
B2: the binding result in test [2], in test [3] and in test [4] was “no binding (tested: 500 nM)” in each case.

B3: 14E12 (antibody, V domains shown)
VH: EVQLVESGGGLVRPGRSLRLSCAASGFTFSDYYMAWVRQAPTKGLEWVASISYDGDTTYYRDSVKGRFTISRDNARSSLYLQMDSLRSDDTANYFCTTDGTIPAGSWFAYWGQGTLVTVSS
VL: DIQMTQSPASLSASLGETVTIECLASKNIYRNLAWYQQKPGKSPQFLISDASRLQDGVPSRFTGSDSGSQYSLKINSLQSEDVATYFCQQYHDYPYTFGAGTKLELK
On to B3, for which the binding result in test [2], in test [3] and in test [4] was “no binding (tested: 500 nM)” each time.

B4: 8E11 (antibody, V domains shown)
VH: QEQLEESGGDLVKPEGSLTLTCTASGFSFSSSYWICWVRQAPGKGLEWIACVYGLDVNIYYASWTKGRFTISKTSSTTVTLQMTSLTAADTATYFCARGGGSADFGFDLWGPGTLVTVSS
VL: DVVMTQTASPVSAAVGGTVTIKCQASENIYSLLAWYQQKPGQPPKVLIYDASDLASGVPSRFKGSGSGTQFTLTISDLECADAATYYCQATAYGSSGNAFGGGTEVVVK
In the case of B4, the binding result in test [2], in test [3] and in test [4] was “no binding (tested: 500 nM)” in each case.

B5: 8G10 (antibody, V domains shown)
VH: QSLEESGGDLVKPEGSLTLTCTASGFSFSTSYWICWVRQAPGKGLEWIACVYGLDVNIYYASWTEGRFTISKTSSTTVTLQVTSLTAADTATYFCARGGGSADFGFDLWGPGTLVTVSS
VL: DVVMTQTPASVSEPVGGTVTIKCQASENIYSLLAWYQQKPGQPPKVLIYDASDLASGVPSRFKGSGSGTQFTLTISDLECADAATYYCQATAYGSSGNAFGGGTEVVVK
Turning to B5, the binding result in test [2], in test [3] and in test [4] was “no binding (tested: 500 nM)” each time.

B6: 9H5 Fab (Fab, V domains shown)
VH: EVQLVESGGGLIQPGGSLRLSCAASGFSLSSYGVSWVRQAPGKGLEYVGFIGSGGFAYYASWAKSRFTISRDNSKNTLYLQMNSLRAEDTAVYYCARDDVGGGKSLDIWGQGTLVTVSS
VL: DIQMTQSPSSLSASVGDRVTITCQASQSISSYLSWYQQKPGKAPKLLIYSASTLASGVPSRFSGSGSGTDFTLTISSLQPEDFATYYCHQDYTSSNVDNTFGGGTKVEIKR
notes: Fab used for crystallization with human KLK5; lysines of the complex were methylated; also called Fab 9H5 Humanized
Regarding B6, the buried surface area in test [1] was determined as 805 Å^2.

B7: 3-3F5 (antibody, V domains shown)
VH: QSVKESEGGLFKPTDTLTLTCTVSGFSLNDYGVSWVRQAPGNGLEWIGAIGSSGVAWYANWAKGRSTITRNTNLNTVTLKMASLTAADTATYFCARDRDYGYRADDATSGMDLWGPGTLVTVSS
VL: AYDMTQTPASVEAAVGGTVTIKCQASESIGNALAWYQQKPGQPPKLLIYDASDLASGVPSRFKGSGSGTQFTLTISGVECADAATYYCQQGDSHNNVDNIFGGGTEVVVK
notes: Rabbit monoclonal; also called Chimeric 3-3F5
With B7, the IC50 in test [5], in test [6], in test [7] and in test [8] was more than 100 nM in each case.
